Reference: a protein production outcome set (Wang et al. 2014)

Assay: label from the status in PepcDB records

Sequence | protein production
MESGNVVNTQPELSGIIDGSKSYMYEQLWKLCAGPLCDIPKLGEKVYYFPQGHIELVEASTREELNELQPICDFPSKLQCRVIAIQLKVENNSDETYAEITLMPDTTQVVIPTQNQNQFRPLVNSFTKVLTASDTSVHGGFSVPKKHAIECLPPLDMSQPLPTQEILAIDLHGNQWRFRHIYRGTAQRHLLTIGWNAFTTSKKLVEGDVIVFVRGETGELRVGIRRAGHQQGNIPSSIVSIESMRHGIIASAKHAFDNQCMFIVVYKPRSSQFIVSYDKFLDVVNNKFNVGSRFTMRFEGDDFSERRSFGTIIGVSDFSPHWKCSEWRSLEVQWDEFASFPRPNQVSPWDIEHLTPWSNVSRSSFLKNKRSREVNEIGSSSSHLLPPTLTQGQEIGQQSMATPMNISLRYRDITEDAMTPSRLLMSYPVQPMAKLNYNNVVTPIEENITTNAVASFRLFGVSLATPSVIKDPVEQIGLEISRLTQEKKFGQSQILRSPTEIQSKQFSSTRTCTKVQMQGVTIGRAVDLSVLNGYDQLILELEKLFDLKGQLQARNQWEIAFTNNEEDKMLVGEDPWPEFCNMVKKIFIYSKEEVKNLKSRKSLSS | failed
MESLPVLGVFFMVKTANVAVMPLFPRSQYRIIGQIGQGQFGRVYCAIHRTTGKMYALKDLEHRVFPTNKFLRELSYLLTLRHPNIVACHGLEYHPGGRYLVMDYCEGGTLRDIIDGDGDLCLAGKIDLLRQILLGLAQAHQHDIVHCDLKPENILLIPRAEGWQVKVSDFGIARLTAKTGNPNFSKGYTGSPAYMAPERFYGKFSVASDIYAVGILLYELIVGDRPFSGFPKALQAAHLNVRLTLPPEFPPLLAPIVQRALEKLPQRRFPNATAMASDLATVQKQILEQDPPRGNGYLYHHLAPAPLAFTATVKHSTPLLFPISHLTGAGLWLYLGNGAELYLWEYGDGNVEHHPLPRWALGLPGTIANLEVNQDQISLLIQGGEPGEWQFYQWRETLLGALSLPKPRINLRAERLLANLSPGGKTLAVVVGDRDSEKGHFQLWRTDHSLPVAAAVVIRWPDQLLTLDQNHGLLVQSQSTASYCHTIFFLFNRRGSLFPAFRLSFLVFQLVVNRYSRNHLFGLADNAPYTGILIRLQPLKVNRIALTIQPQFIEPFPWGYLLADRHGEVALLDYEGFLFGNFSLGETITAIAPMGRYLCLFATWQGNGGTLRLLDLGPQVENIIRQRQEKR | failed
MESPGGSAPLLGLELCAAARDSAAMAGPGAPCDPCAPAAVWKRHIVRQLRHRDRTQKALFLELVPAYNHLLEKAELLAKFSEKLKSEPKDAISTRHEDWREEVSGTGPDQVSSPASLRVKWQQEKKGLQLVCGEMAYQVVKKSAALDTLQSQLEERQDRLEALQACVVQLQEARAQQSRQLEERQAENAAQREAYETLLQQAVHQEAALRRLQEEARDLLEQLVQRKARAAAERNLRNERRERANQALVSQELKKAAKRTVSISEIPNTLEDGTKEETVALAPAALPEFSESETCEKWKRPFRSASATSLTLSRCVDVVKGLLDFKKRRGHSVGGAPEQRYQSIPVCVSAQIPSQAQDVLDAHLSEVNAVCFGPNSSLLATGGADRLIHLWNVVGGRLEANQTLEGAGGSITSVDFDPSGSQVLAATYNQAAQLWKVGETQSKETLSGHKDKVTAAKFKLTRHQAVTGSRDRTVKEWDLGRAYCSRTINVLSYCNDVVCGDHIIISGHNDQKIRFWDSRGPHCIQVIPVQGRVTSLHLSYDQLHLLSCSRDNTLKVIDLRISNIRQVFRADGFKCSSDWTKAVFSPDRSYALAGSSNGDLYIWDVNTGKLETSLQGPHCTAVNAVAWCFSGNHVVSVDQGRKVVLWH | failed
MESSAINIAIVVVYLLAMLAFGWWGKSRTKNNSDFLVAGRRLGPFLYTGTMAAVVLGGASTVGGVGLGYKFGISGMWLVVAIGSGVLLLSLLFAGTIQKLKIYTVSQMLTLRYGSTATQTSGIVMLAYTLMLCATSTGAYATIFVVLFGWERWLAIAIGGAIVLVYSTIGGMWSITLADQVQFVIKTVGIFFLMLPFALNAAGGLDGIRARVDESFFDIGGIGLQTIITYFVVYTLGLLIGQDIWQRVFTAKTPTVARWGGATAGVYCILYGFAGALIGMAASVALSGVEIAAKDDVYAEVATRLLPIGIGGLVLAAAVAAMMSTASGALIAAATVARADVMPFVASWFGKKVDTSDSDNPEHDVKANRYWVLGLGIVAIIIAISTKDVVAALTIAYDILVGGLLVAIIGGLVWKRGTGIAAAWSMAAGSVITLGTMIILEINAEVPLDGIYANEPIYFGLIASAVVYVVVSLLSKPTDPAVMKAWTDRVAGTRVAEEELTTPAS | failed
MESTKSYDIPILRNVSRSFSVHYRDYLQRCGIFVPKEGNSSGPDAYVVFHNGQTRYVVGFSFKFYHKSEFSKRNIEEEAKKFFKGVVSVLNDESFSSVQLRFQFVMVVCTSYGRSVVFSSEEQNIVEDASYLVTEHSSGSTLNESSRSCLQLVIVSQRNLEMYLGRDNVETLRKIGEASREEFSKDFSVWCETVFESMSNEYVSPLEQSNVTLRVARNIRPRTNEENRMQIEELQTAMKVERSVAASSSLSSSFDWNTFLREYCGLSEEDVAYCLPKVEDIDMDELPAVTKEILRDLGIDKPALRLKIRSSIRSYLANER | not failed
MESTLSASNMQDPSSSPLEKCLGSANGNGDLDSEEGSSLEETGFNWGEYLEETGASAAPHTSFKHVEISIQSNFQPGMKLEVANKNNPDTYWVATIITTCGQLLLLRYCGYGEDRRADFWCDVVIADLHPVGWCTQNNKVLMPPDAIKEKYTDWTEFLIRDLTGSRTAPANLLEGPLRGKGPIDLITVGSLIELQDSQNPFQYWIVSVIENVGGRLRLRYVGLEDTESYDQWLFYLDYRLRPVGWCQENKYRMDPPSEIYPLKMASEWKCTLEKSLIDAAKFPLPMEVFKDHADLRSHFFTVGMKLETVNMCEPFYISPASVTKVFNNHFFQVTIDDLRPEPSKLSMLCHADSLGILPVQWCLKNGVSLTPPKGYSGQDFDWADYHKQHGAQEAPPFCFRNTSFSRGFTKNMKLEAVNPRNPGELCVASVVSVKGRLMWLHLEGLQTPVPEVIVDVESMDIFPVGWCEANSYPLTAPHKTVSQKKRKIAVVQPEKQLPPTVPVKKIPHDLCLFPHLDTTGTVNGKYCCPQLFINHRCFSGPYLNKGRIAELPQSVGPGKCVLVLKEVLSMIINAAYKPGRVLRELQLVEDPHWNFQEETLKAKYRGKTYRAVVKIVRTSDQVANFCRRVCAKLECCPNLFSPVLISENCPENCSIHTKTKYTYYYGKRKKISKPPIGESNPDSGHPKPARRRKRRKSIFVQKKRRSSAVDFTAGSGEESEEEDADAMDDDTASEETGSELRDDQTDTSSAEVPSARPRRAVTLRSGSEPVRRPPPERTRRGRGAPAASSAEEGEKCPPTKPEGTEDTKQEEEERLVLESNPLEWTVTDVVRFIKLTDCAPLAKIFQEQDIDGQALLLLTLPTVQECMELKLGPAIKLCHQIERVKVAFYAQYAN | failed
MESWKVNLISVWFGCFFTGLAISQILPFLPLYVSQLGVTSHEALSMWSGLTFSVTFLVSAIVSPMWGSLADRKGRKLMLLRASLGMAIAILLQAFATNVWQLFILRAIMGLTSGYIPNAMALVASQVPRERSGWALSTLSTAQISGVIGGPLLGGFLADHVGLRMVFFITAILLTISFLVTLFLIKEGVRPQVSKSERLTGKQVFASLPYPGLVISLFFTTLVIQLCNGSIGPILALFIKSMAPDSNNIAFLAGMIAAVPGVSALISAPRLGKLGDRIGTSRILLATLCCAVVMFFAMSFVTTPLQLGTLRFLLGFADGAMLPAVQTLLLKYSSDSVTGRIFGYNQSFMYLGNVAGPLIGASVSAMAGFRWVFIATAIIVFINLWQLAWMLRQTRRANA | not failed
METESEQNSNSTNGSSSSGGSSRPQIAQMSLYERQAVQALQALQRQPNAAQYFHQFMLQQQLSNAQLHSLAAVQQATIAASRQASSPNTSTTQQQTTTTQASINLATTSAAQLISRSQSVSSPSATTLTQSVLLGNTTSPPLNQSQAQMYLRPQLGNLLQVNRTLGRNVPLASQLILMPNGAVAAVQQEVPSAQSPGVHADADQVQNLAVRNQQASAQGPQMQGSTQKAIPPGASPVSSLSQASSQALAVAQASSGATNQSLNLSQAGGGSGNSIPGSMGPGGGGQAHGGLGQLPSSGMGGGSCPRKGTGVVQPLPAAQTVTVSQGSQTEAESAAAKKAEADGSGQQNVGMNLTRTATPAPSQTLISSATYTQIQPHSLIQQQQQIHLQQKQVVIQQQIAIHHQQQFQHRQSQLLHTATHLQLAQQQQQQQQQQQQQQQPQATTLTAPQPPQVPPTQQVPPSQSQQQAQTLVVQPMLQSSPLSLPPDAAPKPPIPIQSKPPVAPIKPPQLGAAKMSAAQQPPPHIPVQVVGTRQPGTAQAQALGLAQLAAAVPTSRGMPGTVQSGQAHLASSPPSSQAPGALQECPPTLAPGMTLAPVQGTAHVVKGGATTSSPVVAQVPAAFYMQSVHLPGKPQTLAVKRKADSEEERDDVSTLGSMLPAKASPVAESPKVMDEKSSLGEKAESVANVNANTPSSELVALTPAPSVPPPTLAMVSRQMGDSKPPQAIVKPQILTHIIEGFVIQEGAEPFPVGCSQLLKESEKPLQTGLPTGLTENQSGGPLGVDSPSAELDKKANLLKCEYCGKYAPAEQFRGSKRFCSMTCAKRYNVSCSHQFRLKRKKMKEFQEANYARVRRRGPRRSSSDIARAKIQGKCHRGQEDSSRGSDNSSYDEALSPTSPGPLSVRAGHGERDLGNPNTAPPTPELHGINPVFLSSNPSRWSVEEVYEFIASLQGCQEIAEEFRSQEIDGQALLLLKEEHLMSAMNIKLGPALKICAKINVLKET | failed
METISKEFKSKVSLFWEAFNKNDFESAKTQCNQMKKSFSDEANPHYLLGIIYFEEKRFDKSIIELKLALKKDSERKLGGYIYYVIGLNYSKNTFSNMENLNSIYDIELARNAFESALTYENFNESNITELSQIYRNKFKLIQLFQKGLKKFPTKTSFYIKLSAIYKKNGNISERESLLLDAKENIKSFHILFELGELYLEKSQYKCSREHFYLAEKLREGSGLEFAVQVMIGNTHVNEGNPNLANEYYINAFHKEKNSCNFWFGLFGILASSAETSFADLKNILEEMEVTSQLTIEEWYGEMPLYYGSNYFSFDFPIDEKHLINRLNLFKKQQRDTDILGKIELIKASLYEFSSEDTKYIKCLKSAINYFSQHSYDFIFNKLAARYDYLLSHLQEEGKSVNTLINEIVDYLEDDYSFRKEYIEYLPTIVTILFEEKKHKKIIEIKNIFTEKQIDKADIWFHVGYAFNELGRPKESKYAYECNIKINGECTSTHNNLALLLENEGKNSDAVAMFQKALMINVDDEKLQSNLQNALDKQKAKSLLTYKNEAIDKSFVGAVGLLKSETFFSMETLLNFIDRSKKENSFNDGILSIQDEMFPDLLRTNLVKSLELKNDWLIKNYIALTEEIDEYGIPYYQVNPYLEPEIVKLKRMTVESELPKEWTEGIGNITIFKLDELDYFSIKHKISKINKKFKPLVMRDFNELIFNHLVGNRKAVVVLSGSFVELLLTYYCEKKRIKAVEYTCKDSAKPKKKKLYDCVLFDLISFIEEKRIFGNDFFLLSNLSRVYRNFIHPGVELKNSLDKSKSDLCFISSLEILKKII | failed
METLHPFSHLPISDHRFVVQEMVSLHSSSSGSWTKEENKMFERALAIYAEDSPDRWFKVASMIPGKTVFDVMKQYSKLEEDVFDIEAGRVPIPGYPAASSPLGFDTDMCRKRPSGARGSDQDRKKGVPWTEEEHRRFLLGLLKYGKGDWRNISRNFVVSKTPTQVASHAQKYYQRQLSGAKDKRRPSIHDITTGNLLNANLNRSFSDHRDILPDLGFIDKDDTEEGVIFMGQNLSSENLFSPSPTSFEAAINFAGENVFSAGA | failed
METLKKNWTKFILSFIMLVLAIICVYTLSTYKSSEKNTGFLKMGGGFNKSFNSSSRKLNGQPNMKGAPAQHPSNSNANSKSAPPNNFNHNVSKPQRMMGGGEFNSSSKYSSEVLIYSLGFFAIVICAYLAIVKKKIKISTENRGFILAAFLVIGFLFRIIVGLLITGYVTDIGLYKQWALTAAKNLAAVYTNGSVDYPPVYLYVLSIIGKIASSSFMSNYSTLLIKLPSIIADIFSAYFVYRLSIKRFSYETSFALTLFYLFNPAILINSTLWGQADSFFTLLVILAVYFISEDKIVPSSIFFALSVLMKPQGIIFLPLVLFWYIKNKNLKSIFKSIASGFITTIIVLAPFSISKGNITWIFDLYTREVSEYPYASNNAFNFYSLIGANRVKDSNTMFIFSYHTWGMLFIVLITLISGFFYLKSKNKYASTLAALIQVVGVFNFSVGMHERYMFTAVLASILAYIYFKDKRLLLISLLLSFINYANMHTILFNRLNMNVNSSSSMLIVFISLLNITTFVYLIKVCFDLCLKKDIKVTEDIQNTL | failed
